Measured values reported in publication PMC5719400, “Engineering an aldehyde dehydrogenase toward its substrates, 3-hydroxypropanal and NAD^+, for enhancing the production of 3-hydroxypropionic acid” (Scientific Reports, 2017).
Positions count from the first letter of the chain named. Names and notes keep the numbering of the source.

How the values were obtained:
Assay in all cases: purified protein
Format in all cases: biochemical, Azospirillum brasilense
purified protein [1] = substrate: O=CCCO; conditions: 2 mM NAD+, 100 mM phosphate pH 8, 25 °C
Source text: (§1) (α-ketoglutaric semialdehyde dehydrogenase)

purified protein [2] = substrate: NC(=O)c1ccc[n+]([C@@H]2O[C@H](COP(=O)(O)OP(=O)(O)OC[C@H]3O[C@@H](n4cnc5c(N)ncnc54)[C@H](O)[C@@H]3O)[C@@H](O)[C@H]2O)c1; conditions: 3 mM 3-HPA, 100 mM phosphate pH 8, 25 °C, varied: cofactor
Source text: as §1

purified protein [3] = substrate: NC(=O)c1ccc[n+]([C@@H]2O[C@H](COP(=O)(O)OP(=O)(O)OC[C@H]3O[C@@H](n4cnc5c(N)ncnc54)[C@H](OP(=O)(O)O)[C@@H]3O)[C@@H](O)[C@H]2O)c1; conditions: 3 mM 3-HPA, 100 mM phosphate pH 8, 25 °C, varied: cofactor
Source text: as §1

B1: KGSADH (α-ketoglutaric semialdehyde dehydrogenase) (Azospirillum brasilense; A337R/A442P/P444T/R334Q) (protein)
chain: ANVTYTDTQLLIDGEWVDAASGKTIDVVNPATGKPIGRVAHAGIADLDRALAAAQSGFEAWRKVPAHERAATMRKAAALVRERADAIAQLMTQEQGKPLTEARVEVLSAADIIEWFADEGRRVYGRIVPPRNLGAQQTVVKEPVGPVAAFTPWNFPVNQVVRKLSAALATGCSFLVKAPEETPASPAALLRAFVDAGVPAGVIGLVYGDPAEISSYLIPHPVIRKVTFTGSTPVGKQLASLAGLHMKRATMELGGHAPVIVAEDADVALAVKAAGGAKFRNAGQVCISPTRFLVHNSIRDEFTRALVKHAEGLKVGNGLEEGTTLGALANPRQLTRMASVIDNARKVGASIETGGERIGSEGNFFAPTVIANVPLDADVFNNEPFGPVAAIRGFDKLEEAIAEANRLPFGLAGYAFTRSFANVHLLTQRLEVGMLWINQPPTTWPEMPFGGVKDSGYGSEGGPEALEPYLVTKSVTVMAV
notes: N-terminal His6-tag (pQE80L), expressed in E. coli DH10β, Ni-NTA purified; catalytic residues E253 and C287
Purified protein [1]; variant 106-QR
  Km: 0.29(±0.062) mM
  kcat: 5 ± 1.2 s⁻¹
  kcat/Km: 17000 ± 7800 M⁻¹ s⁻¹
Purified protein [2]; variant 106-QR
  Km: 0.025(±0.0045) mM
  kcat: 4.8 ± 0.93 s⁻¹
  kcat/Km: 192000 ± 72500 M⁻¹ s⁻¹

B2: KGSADH (α-ketoglutaric semialdehyde dehydrogenase) (Azospirillum brasilense; A337R/A442P/K273A/P444A/R334Q/T443E) (protein)
chain: B1 chain with K272A, T442E, T443A
notes: as for B1
Purified protein [1]; variant 108-QR
  Km: 0.17(±0.032) mM
  kcat: 6 ± 1.3 s⁻¹
  kcat/Km: 35000 ± 14000 M⁻¹ s⁻¹
Purified protein [3]; variant 108-QR
  Km: 0.66(±0.065) mM
  kcat: 4.5 ± 1.1 s⁻¹
  kcat/Km: 6900 ± 2300 M⁻¹ s⁻¹
Purified protein [2]; variant 108-QR
  Km: 0.037(±0.0024) mM
  kcat: 6.1 ± 0.64 s⁻¹
  kcat/Km: 165000 ± 28000 M⁻¹ s⁻¹

B3: KGSADH (α-ketoglutaric semialdehyde dehydrogenase) (Azospirillum brasilense) (protein)
chain: B1 chain with Q333R, R336A, P441A, T443P
notes: as for B1
Purified protein [1]
  Km: 1.6(±0.14) mM
  kcat: 15 ± 2.1 s⁻¹
  kcat/Km: 9000 ± 2100 M⁻¹ s⁻¹
Purified protein [3]
  Km: 2.3(±0.033) mM
  kcat: 8.6 ± 0.84 s⁻¹
  kcat/Km: 3700 ± 420 M⁻¹ s⁻¹
Purified protein [2]
  Km: 0.21(±0.018) mM
  kcat: 12 ± 1.7 s⁻¹
  kcat/Km: 57000 ± 13000 M⁻¹ s⁻¹

B4: KGSADH (α-ketoglutaric semialdehyde dehydrogenase) (Azospirillum brasilense; A337R/R334Q) (protein)
chain: B1 chain with P441A, T443P
notes: as for B1
Purified protein [1]; variant WT-QR
  Km: 0.55(±0.13) mM
  kcat: 6.8 ± 0.35 s⁻¹
  kcat/Km: 12000 ± 3600 M⁻¹ s⁻¹
Purified protein [3]; variant WT-QR
  Km: 0.81(±0.15) mM
  kcat: 4.4 ± 1.4 s⁻¹
  kcat/Km: 5400 ± 2700 M⁻¹ s⁻¹
Purified protein [2]; variant WT-QR
  Km: 0.044(±0.0033) mM
  kcat: 7.9 ± 0.75 s⁻¹
  kcat/Km: 180000 ± 30500 M⁻¹ s⁻¹

B5: KGSADH (α-ketoglutaric semialdehyde dehydrogenase) (Azospirillum brasilense; A110S/A337R/A442P/K273A/P444T/R334Q) (protein)
chain: B1 chain with A109S, K272A
notes: as for B1
Purified protein [1]; variant 104-QR
  Km: 0.43(±0.094) mM
  kcat: 6.7 ± 0.64 s⁻¹
  kcat/Km: 16000 ± 4900 M⁻¹ s⁻¹
Purified protein [2]; variant 104-QR
  Km: 0.033(±0.0089) mM
  kcat: 5.9 ± 0.61 s⁻¹
  kcat/Km: 179000 ± 66700 M⁻¹ s⁻¹
